The values that follow come from paper PMC2811263 (Arteriosclerosis, thrombosis, and vascular biology, 2009).

For experiment [1], the target named is T1, wild-type human GPIHBP1 (glycosylphosphatidylinositol-anchored high-density lipoprotein-binding protein 1) (human, UniProt Q8IV16 21-151).
T1 sequence (looked up): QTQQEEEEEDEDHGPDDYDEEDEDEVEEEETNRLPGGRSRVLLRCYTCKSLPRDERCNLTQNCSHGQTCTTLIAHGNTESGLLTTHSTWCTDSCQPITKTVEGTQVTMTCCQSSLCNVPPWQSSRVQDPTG
The experiment in a line: binding of added LPL to transfected cells, bound LPL quantified by ELISA. For orientation: An ELISA detects its analyte on a solid surface through an enzyme-linked reagent.

The next experiment has as its target T2, wild-type mouse GPIHBP1 (mouse, UniProt Q9D1N2 23-198).
T2 sequence (looked up): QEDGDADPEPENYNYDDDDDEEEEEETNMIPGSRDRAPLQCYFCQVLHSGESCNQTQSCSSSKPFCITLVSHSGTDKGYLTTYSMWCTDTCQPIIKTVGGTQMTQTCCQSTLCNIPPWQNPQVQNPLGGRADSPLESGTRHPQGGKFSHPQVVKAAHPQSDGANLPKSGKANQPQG
Described as above.

B1: avian lipoprotein lipase (LPL) (enzyme, UniProt P11602 26-490, looked up)
chain: SDPEAEMNFEGIESKFSLRTPAEPDEDVCYLVPGQMDSLAQCNFNHTSKTFVVIHGWTVTGMYESWVPKLVDALYKREPDSNVIVVDWLVRAQQHYPVSAAYTKLVGKDVAMFIDWMEEKFNYPLNNVHLLGYSLGAHAAGIAGSLTKKKVNRITGLDPAGPTFEYADAPIRLSPDDADFVDVLHTYTRGSPDRSIGIQKPVGHIDIYPNGGGFQPGCNLGEALRLIAEKGFSDVDQLVKCSHERSIHLFIDSLLYEEKPSMAYRCNTKEAFEKGLCLSCRKNRCNNLGYKVNRVRTKRNTKMYLKTRAQMPYKVFHYQVKIHFFGKTNVTKVDQPFLISLYGTLDESENIPFTLPEVSSNKTFSFLIYTEVDIGDLLMLKLQWEKDTFFSWSDWWTPFAFTIQRVRVKSGETQKKVVFCSRDGSSRLGKGEEAAIFVKCLEQPVSRKRGGAKKASKENSAHESA
For the molecule B1, the “fold more LPL bound than by cells expressing GPIHBP1-Q115P” value in experiment [1] came out at 39.8 fold. Further, the “fold more LPL bound than by cells expressing GPIHBP1-Q114P” value with wild-type mouse GPIHBP1 worked out at 20.2 fold.
